Measured values published in the supplement of paper PMC9112550, “Optimization of the antimicrobial peptide Bac7 by deep mutational scanning” (BMC Biology, 2022).

system: Escherichia coli TOP10; experiment: shrunken log2 fold change of peptide-encoding DNA abundance (4.5 h post-induction vs induction); higher = less antimicrobial activity (less host growth inhibition); conditions: time post-induction: 4.5 h; library: site-saturation at positions 5, 18, 19, 20
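Further: peptides expressed intracellularly from a pBAD plasmid library in pooled LB shake-flask culture, induced with 0.3% L-arabinose, DNA abundance read by NGS, three biological replicates, DESeq2 with apeglm shrinkage.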

Sequence | shrunken log2 fold change
RRIRTRPPRLPRPRPRPEQSPRP | 0.0803
RRIRHRPPRLPRPRPRPTHRPRP | 0.0822
RRIRRRPPRLPRPRPRPGWMPRP | 0.0476
RRIRDRPPRLPRPRPRPPDVPRP | 0.302
RRIRIRPPRLPRPRPRPIKPPRP | -0.254
RRIRRRPPRLPRPRPRPVPWPRP | 0.573
RRIRARPPRLPRPRPRPIYVPRP | -0.25
RRIRIRPPRLPRPRPRPQEWPRP | -0.0108
RRIRRRPPRLPRPRPRPDPKPRP | 0.304
RRIRARPPRLPRPRPRPGTKPRP | 0.0261
RRIRSRPPRLPRPRPRPGFLPRP | 0.078
RRIRNRPPRLPRPRPRPGGAPRP | 0.283
RRIRPRPPRLPRPRPRPAFRPRP | 0.211
RRIRGRPPRLPRPRPRPQDTPRP | 0.0614
RRIRVRPPRLPRPRPRPLFFPRP | -0.121
RRIRYRPPRLPRPRPRPYGMPRP | -0.438
RRIRSRPPRLPRPRPRPDWVPRP | 0.305
RRIRKRPPRLPRPRPRPPFHPRP | 0.307
RRIRCRPPRLPRPRPRPHCIPRP | -0.468
RRIRKRPPRLPRPRPRPKSHPRP | 0.0104
RRIRFRPPRLPRPRPRPRQVPRP | -0.331
RRIRRRPPRLPRPRPRPTMIPRP | -0.195
RRIRVRPPRLPRPRPRPNSWPRP | 0.0957
RRIRFRPPRLPRPRPRPPANPRP | 0.858
RRIRGRPPRLPRPRPRPAFEPRP | 0.414

Sequence | shrunken log2 fold change
RRIRPRPPRLPRPRPRPWGRPRP | 0.122
RRIRCRPPRLPRPRPRPLFTPRP | -0.42
RRIRRRPPRLPRPRPRPSYDPRP | -0.434
RRIRERPPRLPRPRPRPDHEPRP | -0.0943
RRIRTRPPRLPRPRPRPKVEPRP | 0.12
RRIRCRPPRLPRPRPRPYCLPRP | -0.442
RRIRMRPPRLPRPRPRPIKFPRP | -0.5
RRIRARPPRLPRPRPRPADGPRP | 0.258
RRIRMRPPRLPRPRPRPLCLPRP | -0.0538
RRIRVRPPRLPRPRPRPVEGPRP | 0.112
RRIRYRPPRLPRPRPRPARKPRP | -0.486
RRIRCRPPRLPRPRPRPPDCPRP | 0.177
RRIRSRPPRLPRPRPRPAMLPRP | 0.0679
RRIRARPPRLPRPRPRPMDRPRP | 0.108
RRIRPRPPRLPRPRPRPVDLPRP | 0.036
RRIRDRPPRLPRPRPRPEPVPRP | 0.576
RRIRARPPRLPRPRPRPEKSPRP | 1.01
RRIRKRPPRLPRPRPRPSWAPRP | 0.186
RRIRWRPPRLPRPRPRPRHHPRP | -0.0574
RRIRSRPPRLPRPRPRPMAIPRP | 4e-05
RRIRCRPPRLPRPRPRPIVDPRP | 0.0181
RRIRHRPPRLPRPRPRPISCPRP | -0.0318
RRIRFRPPRLPRPRPRPINNPRP | -0.683
RRIRDRPPRLPRPRPRPLYLPRP | -0.648
RRIRERPPRLPRPRPRPNRSPRP | -0.0779

Sequence | shrunken log2 fold change
RRIRYRPPRLPRPRPRPQVEPRP | -0.218
RRIRERPPRLPRPRPRPEKMPRP | -0.421
RRIRWRPPRLPRPRPRPTNSPRP | -0.39
RRIRWRPPRLPRPRPRPTDYPRP | 0.233
RRIRSRPPRLPRPRPRPAYTPRP | 0.0457
RRIRGRPPRLPRPRPRPIWGPRP | 0.128
RRIRLRPPRLPRPRPRPACKPRP | 0.00454
RRIRYRPPRLPRPRPRPAMVPRP | -0.136
RRIRQRPPRLPRPRPRPQDWPRP | -0.146
RRIRDRPPRLPRPRPRPDMAPRP | 0.219
RRIRTRPPRLPRPRPRPDCSPRP | -0.239
RRIRKRPPRLPRPRPRPQCNPRP | -0.0696
RRIRSRPPRLPRPRPRPYTLPRP | -0.146
RRIRTRPPRLPRPRPRPMTNPRP | -0.138
RRIRSRPPRLPRPRPRPIDGPRP | 0.0145
RRIRYRPPRLPRPRPRPAHGPRP | 0.1
RRIRSRPPRLPRPRPRPNCVPRP | 0.0124
RRIRTRPPRLPRPRPRPVYGPRP | -0.167
RRIRTRPPRLPRPRPRPVPTPRP | 3.08
RRIRKRPPRLPRPRPRPMCQPRP | -0.0286
RRIRERPPRLPRPRPRPCILPRP | -0.425
RRIRTRPPRLPRPRPRPWYIPRP | -0.146
RRIRERPPRLPRPRPRPWDIPRP | -0.0155
RRIRNRPPRLPRPRPRPVKYPRP | -0.288
RRIRYRPPRLPRPRPRPEVNPRP | -0.0081
